From patent US20150291689A1 (AbbVie / Abbott, published 2015)
Positions count from the first letter of the chain named.

Tests used:
rabbit IL-17 [1] = target: T1, rabbit IL-17 (Rabbit, UniProt G1SLF2 24-153); test: Biacore SPR, 3 experiments
T1 sequence: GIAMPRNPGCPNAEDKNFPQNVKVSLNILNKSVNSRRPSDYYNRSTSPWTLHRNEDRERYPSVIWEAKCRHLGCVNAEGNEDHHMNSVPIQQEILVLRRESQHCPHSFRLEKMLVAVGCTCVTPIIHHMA

[2] = target: T2, human IL-17A homodimer (IL-17 A/A) (human, UniProt Q16552 24-155); test: cell-based or functional assay
T2 sequence: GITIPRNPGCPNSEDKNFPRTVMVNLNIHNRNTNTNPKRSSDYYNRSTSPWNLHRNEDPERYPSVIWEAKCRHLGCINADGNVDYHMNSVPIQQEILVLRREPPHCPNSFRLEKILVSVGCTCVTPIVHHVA

human TNF-α [3] = target: T3, human TNF-α (human, UniProt P01375 77-233); test: cell-based or functional assay
T3 sequence (P01375 77-233 limits assumed): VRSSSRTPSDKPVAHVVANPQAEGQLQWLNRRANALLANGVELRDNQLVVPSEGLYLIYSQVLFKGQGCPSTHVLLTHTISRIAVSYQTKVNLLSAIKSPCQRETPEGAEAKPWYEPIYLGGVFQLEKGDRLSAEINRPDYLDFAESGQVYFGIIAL

[4] = target: T4, human IL-17A/F heterodimer (human, UniProt Q16552 24-155; Q96PD4 31-163); test: cell-based or functional assay
T4 sequence 1: T2 sequence
T4 sequence 2: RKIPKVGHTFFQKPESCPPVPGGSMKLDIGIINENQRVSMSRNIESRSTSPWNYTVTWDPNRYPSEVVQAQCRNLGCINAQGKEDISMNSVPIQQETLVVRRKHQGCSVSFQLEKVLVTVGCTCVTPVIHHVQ

[5] = target: T5, monkey (Rhesus/Cynomolgus) IL-17 (Monkey (Rhesus/Cynomolgus), UniProt F6T3G5 24-155); test: cell-based or functional assay
T5 sequence: T2 sequence with T3A, N17T, I77V, P104R

mouse IL-17 = target: T6, mouse IL-17 (Mouse, UniProt Q62386 26-158, limits assumed); test: cell-based or functional assay
T6 sequence (looked up): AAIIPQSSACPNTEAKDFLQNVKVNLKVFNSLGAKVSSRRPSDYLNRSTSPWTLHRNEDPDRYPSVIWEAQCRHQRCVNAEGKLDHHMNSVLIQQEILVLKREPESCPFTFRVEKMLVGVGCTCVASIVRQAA

[6] = target: T2, human IL-17A homodimer (IL-17 A/A); test: cell-based or functional assay; remark: listed apart in the source
human TNF-α [7] = target: T3, human TNF-α; test: cell-based or functional assay; remark: listed apart in the source
rabbit TNF = target: T7, rabbit TNF (Rabbit, UniProt P04924 80-235, limits assumed); test: cell-based or functional assay
T7 sequence (looked up): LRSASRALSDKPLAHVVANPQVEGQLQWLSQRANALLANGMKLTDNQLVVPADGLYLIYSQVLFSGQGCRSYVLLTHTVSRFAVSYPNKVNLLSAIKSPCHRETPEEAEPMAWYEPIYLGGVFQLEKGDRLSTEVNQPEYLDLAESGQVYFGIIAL

rat IL-17 = target: T8, rat IL-17 (Rat, UniProt Q61453 18-150, limits assumed); test: cell-based or functional assay
T8 sequence (looked up): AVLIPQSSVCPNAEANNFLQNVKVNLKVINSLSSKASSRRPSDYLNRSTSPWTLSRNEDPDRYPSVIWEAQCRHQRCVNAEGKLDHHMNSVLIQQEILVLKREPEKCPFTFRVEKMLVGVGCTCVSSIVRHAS

[8] = target: monkey (Rhesus/Cynomolgus) TNF (Monkey (Rhesus/Cynomolgus), UniProt P48094 77-233); test: cell-based or functional assay
monkey (Rhesus/Cynomolgus) TNF, sequence (P48094 77-233 limits assumed): as the sequence (P01375 77-233 limits assumed) above, with R44T, T72N, R138L counted along it

mouse TNF = target: T9, mouse TNF (Mouse, UniProt P06804 80-235); test: cell-based or functional assay
T9 sequence (looked up): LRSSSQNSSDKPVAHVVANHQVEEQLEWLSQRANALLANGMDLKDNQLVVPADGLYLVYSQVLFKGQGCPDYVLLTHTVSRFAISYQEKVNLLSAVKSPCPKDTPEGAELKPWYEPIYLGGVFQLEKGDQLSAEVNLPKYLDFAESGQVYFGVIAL

rat TNF = target: T10, rat TNF (Rat, UniProt P16599 80-235); test: cell-based or functional assay
T10 sequence (looked up): T9 sequence (looked up) with V22A, V58I, N91S, V96I, I117M, Q130L, F143I, A144T

rabbit IL-17 [9] = target: T1, rabbit IL-17; test: cell-based or functional assay

B1: ABBV-257 (HMAK199-1-GS10-H10F7-M11 DVD-Ig binding protein) (bispecific antibody)
heavy: EVQLVQSGAEVKKPGASVKVSCKASGYTFANYGIIWVRQAPGQGLEWMGWINTYTGKPTYAQKFQGRVTMTTDTSTSTAYMELSSLRSEDTAVYYCARKLFTTMDVTDNAMDYWGQGTTVTVSSGGGGSGGGGSEVQLVQSGAEVKKPGSSVKVSCKASGYTFTDYEIHWVRQAPGQGLEWMGVNDPESGGTFYNQKFDGRVTLTADESTSTAYMELSSLRSEDTAVYYCTRYSKWDSFDGMDYWGQGTTVTVSSASTKGPSVFPLAPSSKSTSGGTAALGCLVKDYFPEPVTVSWNSGALTSGVHTFPAVLQSSGLYSLSSVVTVPSSSLGTQTYICNVNHKPSNTKVDKKVEPKSCDKTHTCPPCPAPEAAGGPSVFLFPPKPKDQLMISRTPEVTCVVVDVSHEDPEVKFNWYVDGVEVHNAKTKPREEQYNSTYRVVSVLTVLHQDWLNGKEYKCKVSNKALPAPIEKTISKAKGQPREPQVYTLPPSREEMTKNQVSLTCLVKGFYPSDIAVEWESNGQPENNYKTTPPVLDSDGSFFLYSKLTVDKSRWQQGNVFSCSVLHEALHNHYTQKSLSLSPGK
light: DIQMTQSPSSLSASVGDRVTITCRASQDISQYLNWYQQKPGKAPKLLIYYTSRLQSGVPSRFSGSGSGTDFTLTISSLQPEDFATYFCQQGNTWPPTFGQGTKLEIKRGGSGGGGSGDIQMTQSPSSLSASVGDRVTITCRASSGIISYIDWFQQKPGKAPKRLIYATFDLASGVPSRFSGSGSGTDYTLTISSLQPEDFATYYCRQVGSYPETFGQGTKLEIKRTVAAPSVFIFPPSDEQLKSGTASVVCLLNNFYPREAKVQWKVDNALQSGNSQESVTEQDSKDSTYSLSSTLTLSKADYEKHKVYACEVTHQGLSSPVTKSFNRGEC
modifications: N-linked glycans on the heavy chain (position not given)
Kd (rabbit IL-17 [1]): 3.3 nM
Mean IC50, IL-17 dependent induction of IL-6 in fibroblasts [2]: 0.026 nM
Mean IC50, TNF-induced lethality of L929 cells (human TNF-α [3]): 0.025 nM
Mean IC50, IL-17 dependent induction of IL-6 in fibroblasts [4]: 0.11 nM
IC50, in vitro neutralization assay [5]: 0.032 nM
IC50, in vitro neutralization assay (mouse IL-17): 0.239 nM
IC50, in vitro neutralization assay [6]: 0.026 nM
IC50, in vitro neutralization assay (human TNF-α [7]): 0.025 nM
IC50, in vitro neutralization assay (rabbit TNF): > 1000 nM
IC50, in vitro neutralization assay (rat IL-17): 0.135 nM
IC50, in vitro neutralization assay [8]: 0.025 nM
IC50, in vitro neutralization assay (mouse TNF): > 1000 nM
IC50, in vitro neutralization assay (rat TNF): > 1000 nM
IC50, in vitro neutralization assay (rabbit IL-17 [9]): 11.4 nM
